Reference: article doi:10.1101/2024.12.12.628194

How the values were obtained:
[1] = target: TaqCad1 (CARF-fused adenosine deaminase Cad1 from Thermoanaerobaculum aquaticum), wild type (Thermoanaerobaculum aquaticum); test: cryo-EM structure
[2] = target: TaqCad1 R408D/A411E variant (Thermoanaerobaculum aquaticum); test: SEC

## TaqCad1 (CARF-fused adenosine deaminase Cad1 from Thermoanaerobaculum aquaticum), wild type (enzyme)
[1]
  stoichiometry N: 6

## TaqCad1 R408D/A411E variant (enzyme)
[2]
  stoichiometry N: 2
